Tests used:
[1] = tested on: HEK293 cells; assay: MEKK1 staining and TdT-mediated dUTP incorporation (DNA fragmentation) in transfected cells; format: cell-based, Human
Procedure: Human embryonal kidney 293 cells (HEK293) stably expressing the EBNA-1 protein from Epstein-Barr virus (Invitrogen) were grown in Dulbecco's modified Eagle's medium (DMEM) supplemented with 100 U/ml penicillin/streptomycin and containing 10% bovine calf serum (BCS). The cells were transfected using lipofectamine (Gibco).
Cells were grown on glass coverslips and transfected using lipofectamine. Two days after transfection, the medium was removed and the cells were fixed in 2% paraformaldehyde, 3% sucrose in phosphate buffered saline (PBS) for 10 min at room temperature. Following three washes with PBS, the cells were permeabilized for 10 min with 2% Triton-X100 in PBS. After three PBS washes, the cells were blocked with filtered cultured medium for 15 min. The coverslips were then incubated 1 hour in TdT reaction mix (200 mM potassium cacodylate, 25 mM Tris.HCl, pH 6.6, 250 μg/ml BSA, 5 mM CoCl2, 0.25 U/μl TdT [Boehringer], 10 μM biotin-dUTP [Boehringer]) at 37° C. in a humidifed atmosphere. […] The coverslips were then washed 6× over a 30 min period with PBS and incubated 1 hour at room temperature with a 1/1000 dilution in filtered culture medium of a donkey anti-rabbit, Cy^3-conjugated, antibody (Jackson Immunological) mixed with 5 μg/ml streptavidin conjugated with FITC (Jackson Immunological). The coverslips were washed 6× with PBS and incubated overnight in PBS before being mounted in 20 mg/ml o-phenyldiamine-diHCl (Sigma) in 0.1 M Tris pH 8.5, 90% glycerol. Images were taken using a Leica DMRXA microscope and analyzed with the SlideBook v2.0 software (Intelligent Imaging Innovations, Denver). The subcellular localization of endogenous MEKK1 observed with the anti-COOH-terminal MEKK1 antibody was identical to that observed with a second antibody recognizing the NH2-terminal portion of the MEKK1 protein.

[2] = tested on: MEKK1; assay: Immunoblot of cleavage fragments of transfected HA-tagged MEKK1 in HEK293 cells; format: cell-based, Human
Excerpt: The full length cDNA encoding mouse MEKK1 was modified by addition of the HA-tag sequence ([…]) (SEQ ID NO: 12) at its NH2-terminus and inserted into the expression plasmid pCEP4 (Invitrogen), resulting in plasmid MEKK1.cp4. The MEKK1 sequences DTVD (amino acids 871-874) and DEVE (amino acids 857-860) in MEKK1.cp4 were substituted with alanines using a PCR strategy. The resulting plasmids were named DTVD_A.cp4 and DEVE_A.cp4. The cDNAs for CrmA (Pickup et al., 1986), p35 (Cartier et al., 1994), JNK1-APF (Dérijard et al., 1994) and JNK2-APF (Kallunki et al., 1994) were subcloned in pCEP4 in which the hygromycin resistance gene had been removed, resulting in plasmids CrmA.cp_, p35.cp_, JNK1_APF.cp and JNK2_APF.cp_. Plasmid pCDNA—3.cp4 is the result of the ligation of pCEP4 and pCDNA-3.
200-400 μg cell lysate protein was subjected to SDS-9% PAGE and transferred to nitrocellulose membranes. Blots were performed exactly as described (Widmann et al., 1995). To detect HA-tagged proteins, the mouse monoclonal antibody 12CA5 (Babco) was used as the primary antibody, followed by a rabbit anti-mouse antibody (Cappel). HRP-conjugated protein A at a 1/5000 dilution (Zymed) and ^125I-protein A at a 1/500 dilution (Dupont NEN) were then used for enhanced chemiluminescence (ECL) detection and for quantification using the phosphorimager. To detect MEKK1, 3 different ploclonal antisera were used as primary antibodies, followed by ECL detection using HRP-protein A (see above). These sera were generated by injecting rabbits with GST proteins fused with different portions of the MEKK1 protein.

[3] = tested on: MEKK1; assay: SEK1 K→M phosphorylation by MEKK1 immunoprecipitates; format: biochemical, mouse; conditions: HEK293 lysates; 95-012 antibody
Procedure: MEKK1 was immunoprecipitated from cell lysates (200-500 μg) with the antibodies raised against specific sequences of MEKK1 or the 12CA5 antibody that recognizes the HA-tag sequence.

[4] = tested on: c-Jun kinase (JNK); assay: c-Jun kinase assay, transfected HEK293 cells; format: cell-based, Human
Procedure: (§1) Lysis buffer (70 mM β-glycerophosphate, 1 mM EGTA, 100 μM Na3VO4, 1 mM DTT, 2 mM MgCl2, 0.5% Triton-X100, 20 μg/ml aprotinin) was added to cells 15-24 hours after transfection. Cellular debris was removed by centrifugation at 8,000xg for 5 min. Protein concentration was normalized by Bradford assay using BSA as standard.
c-Jun kinase (JNK) activity was measured using a solid phase kinase assay in which glutathione S-transferase-c-Jun(1-79) (GST-Jun) bound to glutathione-Sepharose 4B beads was used to affinity-purify JNK from cell lysates as described (Gardner and Johnson, 1996; Hibi et al., 1993). Alternatively, JNKI or JNK2 were immunoprecipitated with isoform specific antibodies (Santa Cruz Biotechnology) and GST-Jun used as substrate in an in vitro kinase assay (Hibi et al., 1993). Quantitation of the phosphorylation of GST-Jun was performed with a Phosphorlmager.

[5] = tested on: ERK2; assay: ERK2 immunoprecipitation kinase assay, transfected HEK293 cells; format: cell-based, Human; conditions: co-expression with MEKK1
Procedure: as §1
ERK2 was immunoprecipitated as described above for the JNK isoforms using the ERK2 (C-14) antibody (Santa Cruz Biotechnology). The beads were washed twice with 1 ml lysis buffer and twice with 1 ml lysis buffer without Triton-X100. […] The samples were washed thrice for 5 min each in 75 mM phosphoric acid and once for 2 min in acetone, air-dried, and their radioactivity determined in a β counter.

[6] = co-expression with MEKK1, 6 independent experiments

Row | Molecule | expressing cells showing DNA breaks ([1]; co-expression with ΔMEKK1) | cells showing some DNA fragmentation ([1]; cotransfected with MEKK1) | amount of fragment A [2, 6] | diminution of the amount of fragment B [2, 6] | SEK1 phosphorylation by COOH-terminal antibody immunoprecipitates [3] | effect on activation of the JNKs by MEKK1 ([4]; co-expression with MEKK1) | effect on activation of ERK2 by MEKK1 [5] | reduction in number of expressing cells showing DNA fragmentation ([1]; compared to wild-type MEKK1 or the DEVE→A mutant) | DNA fragmentation ([1]; expression in HEK293 cells) | MEKK1 cleavage fragments generated ([2]; mutants transfected into HEK293 cells) | JNK activation ([4]; expression in HEK293 cells)
1 | p35: baculovirus protein with broad inhibitory activity to ICE/FLICE-like proteases (protein, UniProt P08160 1-299, looked up) Early 35 kDa protein: MCVIFPVEIDVSQTIIRDCQVDKQTRELVYINKIMNTQLTKPVLMMFNISGPIRSVTRKNNNLRDRIKSKVDEQFDQLERDYSDQMDGFHDSIKYFKDEHYSVSCQNGSVLKSKFAKILKSHDYTDKKSIEAYEKYCLPKLVDERNDYYVAVCVLKPGFENGSNQVLSFEYNPIGNKVIVPFAHEINDTGLYEYDVVAYVDSVQFDGEQFEEFVQSLILPSSFKNSEKVLYYNEASKNKSMIYKALEFTTESSWGKSEKYNWKIFCNGFIYDKKSKVLYVKLHNVTSALNKNVILNTIK | 10% | about 5% | unchanged | 90% | reached the same level of phosphorylation observed when the 12CA5 antibody was used | unaffected | unaffected |  |  |  | 
2 | DTVD→A: MEKK1 mutant with DTVD (amino acids 871-874) substituted with alanines (protein, UniProt P53349 2-1493, looked up, variant D871A T872A V873A D874A) Mitogen-activated protein …: AAAAGDRASSSGFPGAAAASPEAGGGGGGGGALQGSGAPAAGAAGLLREPGSAGRERADWRRRQLRKVRSVELDQLPEQPLFLAAASPPCPSTSPSPEPADAAAGASRFQPAAGPPPPGAASRCGSHSAELAAARDSGARSPAGAEPPSAAAPSGREMENKETLKGLHKMEDRPEERMIREKLKATCMPAWKHEWLERRNRRGPVVVKPIPIKGDGSEVNNLAAEPQGEGQAGSAAPAPKGRRSPSPGSSPSGRSVKPESPGVRRKRVSPVPFQSGRITPPRRAPSPDGFSPYSPEETSRRVNKVMRARLYLLQQIGPNSFLIGGDSPDNKYRVFIGPQNCSCGRGAFCIHLLFVMLRVFQLEPSDPMLWRKTLKNFEVESLFQKYHSRRSSRIKAPSRNTIQKFVSRMSNSHTLSSSSTSTSSSENSIKDEEEQMCPICLLGMLDEESLTVCEDGCRNKLHHHCMSIWAEECRRNREPLICPLCRSKWRSHDFYSHELSSPVESPASLRAVQQPSSPQQPVAGSQRRNQESSFNLTHFGTQQIPSAYKDLAEPWIQVFGMELVGCLFSRNWNVREMALRRLSHDVSGALLLANGESTGNSGGGSGGSLSAGAASGSSQPSISGDVVEACCSVLSIVCADPVYKVYVAALKTLRAMLVYTPCHSLAERIKLQRLLRPVVDTILVKCADANSRTSQLSISTVLELCKGQAGELAVGREILKAGSIGVGGVDYVLSCILGNQAESNNWQELLGRLCLIDRLLLEFPAEFYPHIVSTDVSQAEPVEIRYKKLLSLLTFALQSIDNSHSMVGKLSRRIYLSSARMVTAVPAVFSKLVTMLNASGSTHFTRMRRRLMAIADEVEIAEVIQLGVEAAAAGHQDSLQAVAPTSCLENSSLEHTVHREKTGKGLSATRLSASSEDISDRLAGVSVGLPSSTTTEQPKPAVQTKGRPHSQCLNSSPLSHAQLMFPAPSAPCSSAPSVPDISKHRPQAFVPCKIPSASPQTQRKFSLQFQRNCSEHRDSDQLSPVFTQSRPPPSSNIHRPKPSRPVPGSTSKLGDATKSSMTLDLGSASRCDDSFGGGGNSGNAVIPSDETVFTPVEDKCRLDVNTELNSSIEDLLEASMPSSDTTVTFKSEVAVLSPEKAENDDTYKDDVNHNQKCKEKMEAEEEEALAIAMAMSASQDALPIVPQLQVENGEDIIIIQQDTPETLPGHTKAKQPYREDAEWLKGQQIGLGAFSSCYQAQDVGTGTLMAVKQVTYVRNTSSEQEEVVEALREEIRMMGHLNHPNIIRMLGATCEKSNYNLFIEWMAGGSVAHLLSKYGAFKESVVINYTEQLLRGLSYLHENQIIHRDVKGANLLIDSTGQRLRIADFGAAARLASKGTGAGEFQGQLLGTIAFMAPEVLRGQQYGRSCDVWSVGCAIIEMACAKPPWNAEKHSNHLALIFKIASATTAPSIPSHLSPGLRDVAVRCLELQPQDRPPSRELLKHPVFRTTW |  |  |  |  | reduced |  |  | 65% | little DNA fragmentation | only cleaved into fragments A and D | activated JNK to the same level as wild type MEKK1
